Experimental data reported in patent US20070178531A1 (BIOCHECK, published 2007).

T1: Human Id2: Histidine (human, UniProt Q02363 1-134, limits assumed)
T1 construct: Fusion protein made in E. coli from vector pGW07; also called h-Id2: His; not shown: His tag
T1 sequence (looked up): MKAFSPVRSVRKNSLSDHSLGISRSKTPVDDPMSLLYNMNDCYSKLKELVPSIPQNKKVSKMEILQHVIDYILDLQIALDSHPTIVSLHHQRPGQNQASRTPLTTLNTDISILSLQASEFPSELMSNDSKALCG

T2: Human Id1: Histidine (human, UniProt P41134 1-155, limits assumed)
T2 construct: Fusion protein made in E. coli from vector pGW07; also called h-Id1: his; not shown: His tag
T2 sequence (looked up): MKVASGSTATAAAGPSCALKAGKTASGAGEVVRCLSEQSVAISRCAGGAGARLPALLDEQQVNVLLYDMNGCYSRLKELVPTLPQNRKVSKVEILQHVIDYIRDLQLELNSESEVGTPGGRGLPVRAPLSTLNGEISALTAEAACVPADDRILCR

T3: Mouse Id2: Histidine (mouse, UniProt P41136 1-134, limits assumed)
T3 construct: Fusion protein made in E. coli from vector pGW07; also called m-Id2: His; not shown: His tag
T3 sequence (looked up): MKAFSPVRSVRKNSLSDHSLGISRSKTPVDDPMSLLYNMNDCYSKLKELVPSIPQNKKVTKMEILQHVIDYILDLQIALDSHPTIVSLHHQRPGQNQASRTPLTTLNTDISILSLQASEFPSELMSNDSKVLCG

T4: Mouse Id1: Histidine (mouse, UniProt P20067-2 1-148, limits assumed)
T4 construct: Fusion protein made in E. coli from vector pGW07; also called m-Id1-His; not shown: His tag
T4 sequence (looked up): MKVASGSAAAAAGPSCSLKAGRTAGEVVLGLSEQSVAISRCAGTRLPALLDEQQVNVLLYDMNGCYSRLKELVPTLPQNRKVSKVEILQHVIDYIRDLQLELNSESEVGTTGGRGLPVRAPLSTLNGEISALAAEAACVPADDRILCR

T5: Mouse Id3: Histidine (mouse, UniProt P41133 1-119)
T5 construct: Fusion protein made in E. coli from vector pGW07; also called m-Id3: His; Mouse Id3 (coated wells); not shown: His tag
T5 sequence: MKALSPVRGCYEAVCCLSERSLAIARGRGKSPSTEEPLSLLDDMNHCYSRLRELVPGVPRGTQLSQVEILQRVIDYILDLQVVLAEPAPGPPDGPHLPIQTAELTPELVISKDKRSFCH

T6: Human Id3: Histidine (human, UniProt Q02535 1-119 at identity 1.00))
T6 construct: Fusion protein made in E. coli from vector pGW07; also called h-Id3: His; Human Id3 (coated wells); not shown: His tag
T6 chain: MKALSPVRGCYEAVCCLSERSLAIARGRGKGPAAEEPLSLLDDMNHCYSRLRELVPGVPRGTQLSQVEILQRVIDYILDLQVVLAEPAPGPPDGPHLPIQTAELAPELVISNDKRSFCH


Legend:
Human Id2: Histidine [1] = biological target: T1, Human Id2: Histidine; experiment: ELISA, Ab 0.500 µg/ml
Method: (§1) The rabbit monoclonal anti-human Id3 (clone #3-3) and the rabbit monoclonal anti-mouse/human Id3 (clones #6-1, 16-1, 17-3, and 42-1) produced in Example 6 were tested reactivity against the following antigens: mouse Id1:His, human Id1:His, mouse Id2:His, human Id2:His, mouse Id3:His, human Id3:His, mouse Id4:His, human Id4:His and GST.
(§2) 1. Microtiter wells (prepared in accordance with Example 6) were coated (0.1 μg/well) with mouse Id1:His, human Id1:His, human Id2:His, human Id3:His, and 1.0 μg/well with GST. [0155] 2. Antibody Diluent: 0.25% (w/v) BSA in 0.015M KPO₄ Buffer, 0.85% (w/v) NaCl, 0.1% (w/v) NaN₃, pH=7.40 [0156] 3. Rabbit monoclonal anti-human Id3 (clone #3-3) prepared in Example 7 was diluted to […] with the antibody diluent. […] 4. Rabbit monoclonal anti-mouse/human Id3 (clones #6-1, 16-1, 17-3, 42-1) prepared in Example 7 was diluted to 0.005, 0.010, 0.025, 0.05, 0.10, 0.25, and 0.50 μg/ml with the antibody diluent. […] 5. Conjugate Diluent: 50% (v/v) which consists of an aqueous solution containing Fetal Bovine Serum in 0.05 M Tris, 1% (v/v) Proclin-300, pH 7.6. [0159] 6. Conjugate: Goat anti-rabbit IgG (H+L)-HRP conjugate. [0160] 7. TMB reagent. […] 8. Stop solution (1 N HCI). Method
(§3) 1. Dispense 100 μL of antibody diluent, diluted rabbit monoclonal human Id3, and mouse/human Id3 hybridoma supernatants into appropriate wells. […] 2. Incubate at room temperature with mechanical shaking at 750 rpm for 90 minutes. [0165] 3. Remove the incubation mixture by flicking plate content into an appropriate waste container followed by rinsing the wells 5 times with distilled water. [0166] 4. Strike the wells sharply onto absorbent paper or paper towels to remove all residual water droplets. [0167] 5. Dispense 100 μL of 1:50,000 Goat Anti-Rabbit IgG-HRP Conjugate Reagent into each well. Gently mix for 5 seconds. [0168] 6. Incubate at room temperature with mechanical shaking at 750 rpm for 90 minutes. [0169] 7. Repeat procedures 3 and 4. [0170] 8. Dispense 100 μL of TMB Reagent into each well. Gently mix for 5 seconds. [0171] 9. Incubate at room temperature with mechanical shaking at 750 rpm for 20 minutes. […] 10.

Human Id1: Histidine [2] = biological target: T2, Human Id1: Histidine; experiment: ELISA, Ab 0.500 µg/ml
Method: as §1, §2, §3

Human Id2: Histidine [3] = biological target: T1, Human Id2: Histidine; experiment: ELISA, Ab 0.010 µg/ml
Method: as §1, §2, §3

Human Id1: Histidine [4] = biological target: T2, Human Id1: Histidine; experiment: ELISA, Ab 0.010 µg/ml
Method: as §1, §2, §3

Mouse Id2: Histidine = biological target: T3, Mouse Id2: Histidine; experiment: ELISA, Ab 0.010 µg/ml
Method: as §1, §2, §3

Mouse Id1: Histidine = biological target: T4, Mouse Id1: Histidine; experiment: ELISA, Ab 0.010 µg/ml
Method: as §1, §2, §3

Human Id2: Histidine [5] = biological target: T1, Human Id2: Histidine; experiment: ELISA, Ab 0.000 µg/ml (blank)
Method: as §1, §2, §3

[6] = biological target: T7, glutathione S-transferase (GST) (UniProt P08515 1-218 = GST); experiment: ELISA, Ab 0.005 µg/ml
T7 construct: also called carrier protein GST

Mouse Id3: Histidine = biological target: T5, Mouse Id3: Histidine; experiment: ELISA, Ab 0.010 µg/ml
Method: as §1, §2, §3

Human Id3: Histidine = biological target: T6, Human Id3: Histidine; experiment: ELISA, Ab 0.010 µg/ml
Method: as §1, §2, §3

T7 sequence (P08515 whole entry): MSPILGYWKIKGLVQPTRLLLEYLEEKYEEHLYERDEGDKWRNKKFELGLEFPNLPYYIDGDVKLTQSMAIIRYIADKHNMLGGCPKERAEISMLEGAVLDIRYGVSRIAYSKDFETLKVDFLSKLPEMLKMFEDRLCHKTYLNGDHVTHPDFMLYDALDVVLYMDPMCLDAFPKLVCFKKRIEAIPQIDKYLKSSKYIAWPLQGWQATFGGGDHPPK

| Binder | A450 (Human Id2: Histidine [1]) [A450] | A450 (Human Id1: Histidine [2]) [A450] | A450 (Human Id2: Histidine [3]) [A450] | A450 (Human Id1: Histidine [4]) [A450] | A450 (Mouse Id2: Histidine) [A450] | A450 (Mouse Id1: Histidine) [A450] | A450 (Human Id2: Histidine [5]) [A450] | A450 [6] [A450] | A450 (Mouse Id3: Histidine) [A450] | A450 (Human Id3: Histidine) [A450] |
| --- | --- | --- | --- | --- | --- | --- | --- | --- | --- | --- |
| rabbit monoclonal anti-human Id3, clone #BCH-4/#3-3 (antibody, V domains shown, Rabbit IgG from a rabbit hybridoma; also called h Id3 MoAb 3-3) VH: QSVEESGGRLVTPGTPLTLTCTVSGIDLSSYAMSWVRQAPGKGLEWIGVIFPSNNVYYASWAKGRFTISKTSTTVDLKITSPTTEDTATYFCASMGAFDSWGPGTLVTVSS VL: QVLTQTPSPVSAAVGGTVTINCQASQSIYNDNDLAWFQQKPGQPPKLLIYDASTLTSGVPSRFKGSGSGTQFTLTISDLDCDDAATYYCAARYSGNIYGFGGGTEVVVK | 0.047 | 0.048 | 0.043 | 0.046 | 0.045 | 0.047 | 0.043 | 0.045 | – | – |
| rabbit monoclonal anti-mouse/human Id3, clone #BCH-4/#16-1 (antibody, V domains shown, Rabbit IgG from a rabbit hybridoma; also called m/h Id3 MoAb 16-1) VH: QSVEESGGRLVTPGTPLTLTCTASGFSLSSYYIHWVRQAPGKALEWIGYISDGGTTYYASWAKGRFTISKTSSTTVDLKMTSLTTEDTATYFCARQGFNIWGPGTLVTVSL VL: AVLTQTPSPVSAAVGGTVTISCQSSQSVYNNNWLSWFQQKSGQPPKLLIYETSKLESGVPSRFKGSGSGTQFTLTIIDVQCDDAATYYCLGGYWTTSDNNIFGGGTEVVVK | 0.058 | 0.051 | 0.044 | 0.042 | 0.049 | 0.05 | 0.049 | 0.048 | 0.432 | 0.391 |
| rabbit monoclonal anti-mouse/human Id3, clone #BCH-4/#42-1 (antibody, V domains shown, Rabbit IgG from a rabbit hybridoma; also called m/h Id3 MoAb 42-1) VH: QSVEESGGRLVTPGTPLTLTCTASGFSLSSYYIHWVRQAPGKALEWIGYISDGGTTYYASWAKGRFTISKTSSTTVDLKMTSLTTEDTATYFCARQGFNIWGPGTLVTVSL VL: AVLTQTPSPVSAAVGGTVTISCQSSQSVYNNNWLSWFQQKSGQPPKLLIYETSKLESGVPSRFKGSGSGTQFTLTIIDVQCDDAATYYCLGGYWSTSDNNIFGGGTEVVVK | 0.057 | 0.047 | 0.046 | 0.045 | 0.05 | 0.043 | 0.044 | 0.048 | 0.756 | 0.713 |
| rabbit monoclonal anti-mouse/human Id3, clone #BCH-4/#6-1 (antibody, V domains shown, Rabbit IgG from a rabbit hybridoma; also called m/h Id3 MoAb 6-1) VH: QSVEESGGRLVTPGTPLTLTCTASGFSLSNVYIHWVRQAPGKGLEWIGYISDGDTARYATWAKGRFTISKTSSTTVNLKMTSLTTEDTATYFCARQGFNIWGPGTLVTVSL VL: AVLTQTPSPVSAAVGGTVSISCQSSQSVWNNNWLSWFQQKPGQPPKLLIYETSKLESGVPSRFKGSGSGTQFTLTISDVQCDDAATYYCLGGYWTTSDNNVFGGGTEVVVK | 0.063 | 0.048 | 0.044 | 0.049 | 0.048 | 0.044 | 0.045 | 0.046 | 0.539 | 0.491 |
| rabbit monoclonal anti-mouse/human Id3, clone #BCH-4/#17-3 (antibody, V domains shown, Rabbit IgG from a rabbit hybridoma; also called m/h Id3 MoAb 17-3; BCH-3/#17-3) VH: QSVEESGGRLVTPGTPLTLTCTASGFSLSNVYIHWVRQAPGKGLEWIGYISDGDTARYATWAKGRFTISKTSSTTVNLKMTSLTTEDTATYFCARQGFNIWGPGTLVTVSL VL: AVLTQTPSPVSAAVGGTVSISCQSSQSVWNNNWLSWFQQKPGQPPKLLIYETSKLESGVPSRFKGSGSGTQFTLTISDVQCDDAATYYCLGGYWTTSDNNVFGGGTEVVVK | 0.053 | 0.049 | 0.043 | 0.046 | 0.048 | 0.047 | 0.043 | 0.048 | 0.69 | 0.581 |
